# B1: Sentrin-specific protease 7 (Homo sapiens), Q9BQF6 (parent)
# chain: MDKRKLGRRPSSSEIITEGKRKKSSSDLSEIRKMLNAKPEDVHVQSPLSKFRSSERWTLPLQWERSLRNKVISLDHKNKKHIRGCPVTSKSSPERQLKVMLTNVLWTDLGRKFRKTLPRNDANLCDANKVQSDSLPSTSVDSLETCQKLEPLRQSLNLSERIPRVILTNVLGTELGRKYIRTPPVTEGSLSDTDNLQSEQLSSSSDGSLESYQNLNPHKSCYLSERGSQRSKTVDDNSAKQTAHNKEKRRKDDGISLLISDTQPEDLNSGSRGCDHLEQESRNKDVKYSDSKVELTLISRKTKRRLRNNLPDSQYCTSLDKSTEQTKKQEDDSTISTEFEKPSENYHQDPKLPEEITTKPTKSDFTKLSSLNSQELTLSNATKSASAGSTTETVENSNSIDIVGISSLVEKDENELNTIEKPILRGHNEGNQSLISAEPIVVSSDEEGPVEHKSSEILKLQSKQDRETTNENESTSESALLELPLITCESVQMSSELCPYNPVMENISSIMPSNEMDLQLDFIFTSVYIGKIKGASKGCVTITKKYIKIPFQVSLNEISLLVDTTHLKRFGLWKSKDDNHSKRSHAILFFWVSSDYLQEIQTQLEHSVLSQQSKSSEFIFLELHNPVSQREELKLKDIMTEISIISGELELSYPLSWVQAFPLFQNLSSKESSFIHYYCVSTCSFPAGVAVAEEMKLKSVSQPSNTDAAKPTYTFLQKQSSGCYSLSITSNPDEEWREVRHTGLVQKLIVYPPPPTKGGLGVTNEDLECLEEGEFLNDVIIDFYLKYLILEKASDELVERSHIFSSFFYKCLTRKENNLTEDNPNLSMAQRRHKRVRTWTRHINIFNKDYIFVPVNESSHWYLAVICFPWLEEAVYEDFPQTVSQQSQAQQSQNDNKTIDNDLRTTSTLSLSAEDSQSTESNMSVPKKMCKRPCILILDSLKAASVQNTVQNLREYLEVEWEVKLKTHRQFSKTNMVDLCPKVPKQDNSSDCGVYLLQYVESFFKDPIVNFELPIHLEKWFPRHVIKTKREDIRELILKLHLQQQKGSSS
# Variants of: B1
# Settings: with cbx5_human CBX5, P45973
# cbx5_human CBX5, P45973, sequence (P45973 whole entry): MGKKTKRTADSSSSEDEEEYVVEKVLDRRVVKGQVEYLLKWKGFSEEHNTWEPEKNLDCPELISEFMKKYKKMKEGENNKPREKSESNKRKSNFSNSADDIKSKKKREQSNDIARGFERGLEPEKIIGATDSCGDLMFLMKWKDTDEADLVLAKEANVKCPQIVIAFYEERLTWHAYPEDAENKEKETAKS
row,Variant,effect of a mutation on the interaction
1,L149A;L152A;L156A;L158A;P163A;V165A,disrupting interaction

# Variants of: B1
# Settings: with tif1b_human TRIM28, Q13263
# tif1b_human TRIM28, Q13263, sequence (Q13263 whole entry): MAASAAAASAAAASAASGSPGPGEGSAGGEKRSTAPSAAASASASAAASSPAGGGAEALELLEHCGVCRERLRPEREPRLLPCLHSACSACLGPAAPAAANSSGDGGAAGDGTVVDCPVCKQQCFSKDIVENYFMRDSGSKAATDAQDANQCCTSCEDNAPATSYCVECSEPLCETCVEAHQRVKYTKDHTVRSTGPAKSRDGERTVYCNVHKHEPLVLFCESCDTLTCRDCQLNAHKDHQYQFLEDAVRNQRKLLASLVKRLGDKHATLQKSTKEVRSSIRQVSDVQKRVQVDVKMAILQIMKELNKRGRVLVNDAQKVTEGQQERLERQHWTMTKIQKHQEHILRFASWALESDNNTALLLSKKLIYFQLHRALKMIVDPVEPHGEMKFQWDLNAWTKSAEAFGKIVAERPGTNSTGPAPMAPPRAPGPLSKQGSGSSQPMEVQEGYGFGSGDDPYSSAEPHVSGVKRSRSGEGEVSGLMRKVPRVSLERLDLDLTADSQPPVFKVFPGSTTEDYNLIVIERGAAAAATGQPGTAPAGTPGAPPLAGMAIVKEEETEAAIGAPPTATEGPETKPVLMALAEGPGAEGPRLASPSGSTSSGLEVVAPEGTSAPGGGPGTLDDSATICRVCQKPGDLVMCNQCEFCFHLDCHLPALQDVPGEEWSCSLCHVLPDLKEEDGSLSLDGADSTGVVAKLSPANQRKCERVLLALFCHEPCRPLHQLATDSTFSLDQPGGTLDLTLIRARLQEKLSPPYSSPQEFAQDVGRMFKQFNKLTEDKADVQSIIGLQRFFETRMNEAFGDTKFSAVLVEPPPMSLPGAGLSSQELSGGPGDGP
row,Variant,effect of a mutation on the interaction
1,L149A;L152A;L156A;L158A;P163A;V165A,disrupting interaction

# Variants of: B1
# Settings: with tif1b_human TRIM28, Q13263
# Remark: another data set of the same source
row,Variant,effect of a mutation on the interaction
1,C992A,increasing interaction

# From IntAct's records for PubMed 24018422
